The results in this text go back to patent publication US20160297875A1 (CASE WESTERN RESERVE UNIVERSITY, published 2016).

Assay [1] addresses human platelet CD36 (human) (UniProt P16671). In words: cell-based or functional assay.
Assay [2] has as its target T1, BSA (bovine, UniProt P02769 25-607).
T1 construct: also called bovine serum albumin
In words: plate binding assay, wells coated with BSA (10 µg/mL), detection with anti-human MRP-14 antibody and HRP-conjugated secondary antibody at 450 nm. The protocol: High-protein binding plate (Nunc, Thermo Scientific) was coated with purified CD36 (Abcam) or BSA (10 μg/mL) overnight at 4° C. After blocking with 10% BSA at RT for 2 hours, purified human MRP-14 protein (0-2.5 μg/ml) was added and incubated for 2 hours at RT. After washing, plate was incubated with anti-human MRP-14 antibody for one hour followed by washing and incubation with HRP-conjugated secondary antibody that was detected with TMB substrate (Thermo Scientific) at 450 nm.

T1 sequence (P02769 25-607 limits assumed): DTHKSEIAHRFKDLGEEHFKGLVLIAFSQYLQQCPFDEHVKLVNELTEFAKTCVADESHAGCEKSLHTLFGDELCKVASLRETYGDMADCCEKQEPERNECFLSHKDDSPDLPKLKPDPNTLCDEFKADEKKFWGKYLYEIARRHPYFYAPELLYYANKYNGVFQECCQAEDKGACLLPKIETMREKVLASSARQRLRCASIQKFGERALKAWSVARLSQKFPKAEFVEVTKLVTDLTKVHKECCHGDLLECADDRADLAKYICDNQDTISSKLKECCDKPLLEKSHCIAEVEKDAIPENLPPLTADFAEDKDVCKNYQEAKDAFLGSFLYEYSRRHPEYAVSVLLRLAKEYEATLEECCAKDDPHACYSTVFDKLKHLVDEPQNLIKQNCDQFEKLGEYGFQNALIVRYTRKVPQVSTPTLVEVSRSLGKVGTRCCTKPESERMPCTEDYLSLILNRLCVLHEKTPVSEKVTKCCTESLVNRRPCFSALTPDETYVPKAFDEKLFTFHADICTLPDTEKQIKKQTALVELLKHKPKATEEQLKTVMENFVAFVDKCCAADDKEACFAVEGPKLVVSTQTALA
Sequence of human platelet CD36 (human) (P16671 2-472 limits assumed): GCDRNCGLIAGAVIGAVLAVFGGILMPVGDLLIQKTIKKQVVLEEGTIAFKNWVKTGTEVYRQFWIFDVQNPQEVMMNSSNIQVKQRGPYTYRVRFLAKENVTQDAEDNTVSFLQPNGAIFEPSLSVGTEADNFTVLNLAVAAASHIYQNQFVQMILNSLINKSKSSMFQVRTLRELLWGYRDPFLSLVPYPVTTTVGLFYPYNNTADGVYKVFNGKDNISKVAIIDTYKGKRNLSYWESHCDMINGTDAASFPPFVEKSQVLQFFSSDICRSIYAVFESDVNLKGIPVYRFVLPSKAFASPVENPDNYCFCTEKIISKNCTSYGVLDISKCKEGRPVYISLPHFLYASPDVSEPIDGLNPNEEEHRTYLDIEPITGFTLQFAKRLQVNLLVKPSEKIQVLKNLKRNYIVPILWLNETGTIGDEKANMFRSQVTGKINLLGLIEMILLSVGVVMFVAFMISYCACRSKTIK

With “anti-human CD36 monoclonal antibody (clone FA6-152)”, in assay [1], the percentage of inhibition of shear-induced thrombus formation in anticoagulated human whole blood (antibody 10 µg/ml) was determined as 53.8%.

B1: purified, recombinant human MRP-14 (ligand, UniProt P06702 1-114, looked up)
chain: MTCKMSQLERNIETIINTFHQYSVKLGHPDTLNQGEFKELVRKDLQNFLKKENKNEKVIEHIMEDLDTNADKQLSFEEFIMLMARLTWASHEKMHEGDEGPGHHHKPGLGEGTP
notes: Bought protein; also called purified MRP-14; purified human MRP-14 protein
Take B1: in assay [2], the binding result was “no binding (tested: 0-2.5 µg/ml MRP-14)”.
